Assay results from PMC6047474.
Read-outs that look alike come from different tables or passages of the source.

Experiments:
[1] = biological target: Histones (bovine), Sigma-Aldrich H9250 (bovine); test: ITC
[2] = biological target: Histones (bovine), Sigma-Aldrich H9250 (bovine); test: ITC; remark: listed apart in the source

Molecule | Ka [1] | Kd [1] | dH [1] | Ka [2] | Kd [2] | dH [2]
βL-crystallin (complex) | 1.15e+07 M⁻¹ | 86.4 nM | -44.8 kJ/mol | 1.35e+06 M⁻¹ | 743 nM | -37.1 kJ/mol
γ-crystallin | 7.85e+06 M⁻¹ | 127 nM | -55.9 kJ/mol | 9.79e+06 M⁻¹ | 102 nM | -65.9 kJ/mol
α-crystallin (complex) chain 1: MDIAIQHPWFKRALGPFYPSRLFDQFFGEGLFEYDLLPFLSSTISPYYRQSLFRTVLDSGVSEVRSDRDKFVIFLDVKHFSPEDLTVKVQEDFVEIHGKHNERQDDHGYISREFHRRYRLPSNVDQSALSCSLSADGMLTFSGPKVPSGVDAGHSERAIPVSREEKPSSAPTS chain 2: MDIAIHHPWIRRPFFPFHSPSRLFDQFFGEHLLESDLFPASTSLSPFYFRPPSFLRAPSWIDTGLSEMRLEKDRFSVNLDVKHFSPEELKVKVLGDVIEVHGKHEERQDEHGFISREFHRKYRIPADVDPLTITSSLSSDGVLTVNGPRRQASGPERTIPITREEKPAVTAAPKK |  | 400 nM | -26.3 kJ/mol | 3.42e+07 M⁻¹ | 29.3 nM | 
